Data: patent publication US20090068110A1, “ANTIBODIES TO INSULIN-LIKE GROWTH FACTOR RECEPTOR” (Genentech, Inc., priority 2006, published 2009)

What was measured:
human IGF-1R-ECD = target: T1, human IGF-1R-ECD (Homo sapiens, UniProt P08069); assay: phage-competition ELISA (phage IC50); type: binding; details: humanized hybridoma-derived clones displayed on phage as monovalent Fab; read-out: binding affinity (phage IC50) against IGF-1R-ECD
T1 construct: containing the extracellular domain (ECD, amino acids 1-902) tagged with 10 or 12 histidine residues at the carboxyl terminus; His10 or His12 (C); made in house; host or cells: CHO cells
Protocol: MAXISORP™ microtiter plates were coated with human IGF-1R-ECD at 5 μg/ml in PBS overnight and then blocked with CASEIN BLOCKER™ reagent (Pierce Biotechnology, Inc.). Phage from culture supernatants were incubated with serially diluted IGF-1R-ECD in PBS with 0.05% TWEEN 20™ surfactant (PBST) containing 1% bovine serum albumin (BSA) in a tissue-culture microtiter plate for 1 hour, after which 80 μl of the mixture was transferred to the target-coated wells for 15 minutes to capture unbound phage. The plate was washed with PBST, and HRP-conjugated anti-M13 (Amersham Pharmacia Biotech) was added (1:5000 in PBST containing 1% BSA) for 40 minutes. The plate was washed with PBST and developed by adding tetramethylbenzidine (TMB) substrate (Kirkegaard and Perry Laboratories, Gaithersburg, Md.). The absorbance at 450 nm was plotted as a function of target concentration in solution to determine an IC50. […] For the humanized hybridoma-derived clones, 2B4, 9F2, and 10H5, phage-Fab was used.
This assay was conducted as described in Section 1-II-A-(4) of this Example. For the YW95-phage-derived clones from the VH/VL phage library, phage-Fab-Zip was used.

cynomolgus-monkey IGF-1R = assay: BIACORE surface-plasmon resonance, cynomolgus-monkey IGF-1R; type: binding; details: IgG, FIG. 15
Protocol: Binding affinities of selected antibodies to IGF-1R were determined by surface plasmon resonance measurements on a BIACORE™ 3000 instrument (BIAcore, Inc.). Human, murine, or cynomolgus-monkey IGF-1R was immobilized at a density of about 500 RU on the flow cells of a PIONEER™ CM5 sensor chip. Immobilization was achieved by random coupling through amino groups using a protocol provided by the manufacturer. Sensorgrams were recorded for binding of anti-IGF-1R Fab or IgG to these surfaces by injection of a series of solutions ranging from 500 nM to 3.1 nM and 250 nM to 0.78 nM in two-fold increments, respectively. The signal from the reference cell was subtracted from the observed sensorgram. Kinetic constants were calculated by non-linear regression analysis of the data according to a 1:1 Languir binding model using software supplied by the manufacturer.

MCF7 cells = assay: cell viability assay ([…]-GLO), MCF7; type: cell-based, human; details: in the presence of IGF-I
Protocol: The different cell lines were cultured in their respective culture media at 37° C. in a humidified atmosphere of 5% CO2. Subsequently, cells were detached from tissue-culture flasks using the cell-dissociation solution, TRIPLE SELECT™ solution (InVitrogen, Carlsbad, Calif., USA), and centrifuged at 1000 rpm for five minutes. Detached cells were washed once with PBS, counted, and seeded in 96-well plates (Corning, N.Y., USA) at 2000 cells per well in 100 μL of culture media. After an overnight incubation at 37° C. in a humidified atmosphere of 5% CO2, the cell-culture medium was replaced with 50 μL of starvation medium consisting of serum-free RPMI 1640™ medium without phenol red. The cells were then starved for five hours in the incubator before addition of 25 μL of each anti-IGF-1R monoclonal antibody at various dilutions in serum-free RPMI 1640™ phenol red-free media. Later, 25 μL of phenol red-free RPMI 1640™ media supplemented with 4% of fetal bovine serum (FBS) (Sigma) with or without 4 ng/ml of human recombinant IGF-I were added on top of the 50 μL of antibody. The cells were then placed at 37° C. with 5% CO2 for 5 to 6 days. At the end of the assay, cell viability was measured using the […]-GLO® kit according to the manufacturer's instructions (Promega, Madison, Wis., USA).
For the cell viability assay, MCF7 cells were seeded onto 96-well plates at 2000 cells/well and incubated overnight at 37° C. in a humidified atmosphere of 5% CO2/95% air in RPMI 1640™ medium supplemented with 10% FBS (Sigma, St. Louis, Mo.) and 1% GLUTAMAX™ reagent (Promega, Madison, Wis.). The next day cells were starved in serum-free RPMI 1640™ medium (phenol red-free) for five hours followed by addition of serially diluted human chimeric versions of 9F2, 2B4, and 10H5, as well as h10H5.vX, for one hour. Subsequently, phenol red-free PRMI 1640™ medium supplemented with FBS or IGF-I was added to reach a final concentration of 1% FBS and 1 ng/mL IGF-I. Cells were then incubated with continuous IGF-1R antibody exposure. After five days, the cell viability was then determined using a […]-GLO™ kit (Promega, Madison, Wis.) according to the manufacturer's instructions.

IGF-1R = IGF-1R (Homo sapiens, UniProt P08069); assay: antibody-induced IGF-1R down-regulation in MCF7 cells, Western blotting; type: cell-based; set-up: IGF-1R is normally localized at the plasma membrane of MCF7 cells; endogenous in cells; host or cells: MCF7; details: 10 μg/ml, 1, 4, 8 or 24 hours, 10% serum
Protocol: Further exploration of the mechanism of action of anti-IGF-1R antibodies was carried out by testing the ability of the antibodies of the invention, particularly human chimeric antibodies of 2B4, 9F2, 10H5, as well as human phage antibody YW95.6, to induce IGF-1R down-regulation. MCF7 cells were treated with various antibodies (10 μg/ml) for 1, 4, 8, or 24 hours in the presence of 10% serum-containing medium. The cell lysates were harvested, separated by SDS-PAGE, and analyzed for IGF-1R levels by Western blotting using an anti-IGF-1R beta-chain antibody (Cell Signaling Technology, Inc.; Beverly, Mass., USA) or anti-beta-actin antibody.
In a separate experiment, MCF7 cells were treated with serially diluted h10H5, and the cell lysates were analyzed for IGF-1R and IR levels using anti-IGF-1R and anti-IR β-chain antibodies at 1, 2, 4, and 8 hours post-continuous treatment.

B1: h9F2.vX: humanized anti-IGF-1R antibody, direct HVR graft of murine 9F2; VL SEQ ID NO:49, VH SEQ ID NO:51 (antibody, V domains shown)
VH: EVQLVESGGGLVQPGGSLRLSCAASGYTLANYGMNWVRQAPGKGLEWVGWINTNTGKPTYSDEFKGRFTISADTSKNTAYLQMNSLRAEDTAVYYCARSIYYYGSRYFNVWGQGTL
VL: DIQMTQSPSSLSASVGDRVTITCRASQDINNYLTWYQQKPGKAPKLLIYYTSRLHSGVPSRFSGSGSGTDFTLTISSLQPEDFATYYCQQGNTLPWTFGQGTKVEIKR
modifications: sequence is synthesized
IC50 (human IGF-1R-ECD): 60 nM | binding to human versus cyno IGF-1R (cynomolgus-monkey IGF-1R): comparable for human and cyno IGF-1R

B2: chimeric 9F2: human chimeric version of murine 9F2, human IgG1 (antibody, V domains shown)
VH: QIQLVQSGPELKKPGETVKISCKASGYTLANYGMNWVKQAPGKGFKWMGWINTNTGKPTYSDEFKGRFVFSLETSASTAYLLINNLSNEDTATYFCARSIYYYGSRYFNVWGAGTT
VL: DIQMTQSTSSLSASLGDRVTISCRASQDINNYLTWYQQKPDGTVKLLIYYTSRLHSGVPSRFSGSGSGTDYSLTITNLEQEDFATYFCQQGNTLPWTFGEGTKVEIKR
binding to human versus cyno IGF-1R (cynomolgus-monkey IGF-1R): comparable for human and cyno IGF-1R | comparison of inhibitory effect on MCF7 proliferation / viability (MCF7 cells): equivalent at decreasing the MCF7 cell viability | IGF-1R down-regulation (IGF-1R): rapidly down-regulated and reached maximal reduction by eight hours

B3: chimeric 10H5: human chimeric version of murine 10H5, human IgG1 (antibody, V domains shown)
VH: QVQLQQPGAELVKPGASVTLSCKASGYTFTRFWIHWVKQRPGQGLEWIGEINPSNGRTNYNENFKNKATLTVDTSSSTAYMQLSSLTSEVSVVYYCARGGRLDQWGQGTT
VL: DIVMTQSQKFMSTSLGDRVSVTCKASQNVGSNVAWYQQKPGQSPEALIYSASYRYSGVPDRFTGSGSGTDFTLTISNVQSEDLAEYFCHQYNNYPYTFGGGTKVEIKR
binding to human versus cyno IGF-1R (cynomolgus-monkey IGF-1R): comparable for human and cyno IGF-1R | comparison of inhibitory effect on MCF7 proliferation / viability (MCF7 cells): equivalent at decreasing the MCF7 cell viability | IGF-1R down-regulation (IGF-1R): rapidly down-regulated and reached maximal reduction by eight hours
